T1: human MCAM (melanoma cell adhesion molecule) expressed on transfected CHO cells (human, UniProt P43121 24-646)
T1 construct: also called hMCAM; CD146
T1 chain: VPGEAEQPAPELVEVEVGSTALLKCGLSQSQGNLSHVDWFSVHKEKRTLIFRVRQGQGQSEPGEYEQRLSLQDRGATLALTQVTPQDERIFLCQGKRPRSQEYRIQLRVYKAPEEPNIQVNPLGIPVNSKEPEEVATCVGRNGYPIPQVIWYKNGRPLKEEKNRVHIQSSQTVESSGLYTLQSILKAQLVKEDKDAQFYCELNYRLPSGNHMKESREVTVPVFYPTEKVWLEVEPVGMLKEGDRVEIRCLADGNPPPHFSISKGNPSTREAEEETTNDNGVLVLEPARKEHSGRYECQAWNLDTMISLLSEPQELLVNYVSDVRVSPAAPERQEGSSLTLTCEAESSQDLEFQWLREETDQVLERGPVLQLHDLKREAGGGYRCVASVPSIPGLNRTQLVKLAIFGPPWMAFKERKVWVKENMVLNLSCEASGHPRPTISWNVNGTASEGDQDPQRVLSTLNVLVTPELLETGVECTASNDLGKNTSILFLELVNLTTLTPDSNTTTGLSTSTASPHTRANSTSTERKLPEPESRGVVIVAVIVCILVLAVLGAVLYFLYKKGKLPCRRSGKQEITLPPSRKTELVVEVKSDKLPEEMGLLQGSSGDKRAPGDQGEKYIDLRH

T2: recombinant hMCAM-His (human, UniProt P43121 24-559)
T2 construct: not shown: His tag
T2 chain: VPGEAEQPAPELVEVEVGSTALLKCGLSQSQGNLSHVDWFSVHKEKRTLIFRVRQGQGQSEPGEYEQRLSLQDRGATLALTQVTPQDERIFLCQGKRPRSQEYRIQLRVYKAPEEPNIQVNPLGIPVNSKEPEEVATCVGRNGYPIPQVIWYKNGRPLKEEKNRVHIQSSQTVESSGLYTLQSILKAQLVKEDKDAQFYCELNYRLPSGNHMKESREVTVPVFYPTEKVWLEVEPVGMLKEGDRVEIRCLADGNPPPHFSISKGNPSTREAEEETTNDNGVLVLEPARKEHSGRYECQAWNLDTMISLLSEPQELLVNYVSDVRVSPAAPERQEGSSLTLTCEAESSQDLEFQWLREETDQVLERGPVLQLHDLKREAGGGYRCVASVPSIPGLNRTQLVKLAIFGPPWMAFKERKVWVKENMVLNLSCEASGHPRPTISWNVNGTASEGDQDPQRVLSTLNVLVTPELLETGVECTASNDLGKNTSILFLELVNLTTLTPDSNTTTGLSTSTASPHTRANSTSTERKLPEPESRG


Tests used:
[1] = biological target: T1, human MCAM (melanoma cell adhesion …); experiment: laminin/FACS on hMCAM CHO cells, competitor laminin 411; Expt#1; vs rodent 2120
Description: (§1) Following incubation for 30-45 minutes, the cells were washed and anti-laminin conjugated to AF650 (NovusBio) was added to detect the bound laminin. The cells were run on a flow cytometer to measure the laminin binding signal.

recombinant hMCAM-His [2] = biological target: T2, recombinant hMCAM-His; experiment: summary of ForteBio, hMCAM-His; vs rodent 2120
Description: (§2) The affinities were measured using the ForteBio Octet Red. Anti-human Fc sensors were used to capture the humanized antibodies, and several concentrations of hMCAMHis analyte were used to determine the affinity using a 1:1 fitting model.

recombinant hMCAM-His [3] = biological target: T2, recombinant hMCAM-His; experiment: ForteBio Octet Red, hMCAM-His analyte; Forte column 1; vs rodent 2120
Description: as §2

recombinant hMCAM-His [4] = biological target: T2, recombinant hMCAM-His; experiment: competitive ELISA on hMCAM-His, competitor biotinylated rodent or chimeric 2120; vs rodent 2120
Description: (§3) ELISA plates were coated with recombinant hMCAM-His, and blocked with casein buffer to prevent non-specific binding. Biotinylated rodent or chimeric antibody was added at a subsaturating concentration, in the presence or absence of 3× increasing concentrations of unlabeled competitor (humanized antibody, rodent, or chimeric). After washing to remove unbound antibody, streptavidin HRP was added to allow detection of the biotinylated antibody. The ELISA was developed with TMB substrate and the OD450 was measured. The IC50 of the unlabeled competitor was determined using the GraphPad Prism5 software.

[5] = biological target: T1, human MCAM (melanoma cell adhesion …); experiment: laminin/FACS on hMCAM CHO cells, competitor laminin 411; Expt#2; vs rodent 2120
Description: as §1

recombinant hMCAM-His [6] = biological target: T2, recombinant hMCAM-His; experiment: competitive ELISA on hMCAM-His, competitor biotinylated rodent or chimeric 2107; vs rodent 2107
Description: as §3

recombinant hMCAM-His [7] = biological target: T2, recombinant hMCAM-His; experiment: ForteBio Octet Red, hMCAM-His analyte; Forte column 1; vs rodent 2107
Description: as §2

[8] = biological target: T1, human MCAM (melanoma cell adhesion …); experiment: laminin/FACS on hMCAM CHO cells, competitor laminin 411; Expt#2; reference row with 1.0 is chimeric 2107
Description: as §1

[9] = biological target: T1, human MCAM (melanoma cell adhesion …); experiment: laminin/FACS on hMCAM CHO cells, competitor laminin 411; Expt#1; vs rodent 2107
Description: as §1

recombinant hMCAM-His [10] = biological target: T2, recombinant hMCAM-His; experiment: ForteBio Octet Red, hMCAM-His analyte; Forte column 2; vs rodent 2107
Description: as §2

recombinant hMCAM-His [11] = biological target: T2, recombinant hMCAM-His; experiment: competitive ELISA on hMCAM-His, competitor biotinylated rodent or chimeric 1749; Expt. #2; vs rodent 1749
Description: as §3

Binder | fold over rodent (blocking, laminin/FACS) [1] | fold reduction in affinity as measured by ForteBio (recombinant hMCAM-His [2]) | fold over rodent (Forte affinity) (recombinant hMCAM-His [3]) | fold over rodent (competitive ELISA) (recombinant hMCAM-His [4]) | fold over rodent (blocking, laminin/FACS) [5] | fold over rodent (competitive ELISA) (recombinant hMCAM-His [6]) | fold over rodent (Forte affinity) (recombinant hMCAM-His [7]) | fold over rodent (blocking, laminin/FACS) [8] | fold over rodent (blocking, laminin/FACS) [9] | fold over rodent (Forte affinity) (recombinant hMCAM-His [10]) | fold over rodent (competitive ELISA) (recombinant hMCAM-His [11])
h2120_VH1 + h2120_VL1 (antibody, human IgG1, V domains shown) VH: QVTLKESGPVLVKPTETLTLTCTVSGFSLTSNGVSWVRQPPGKALEWIAAISSGGTTYYNSAFKSRLTISRDTSKSQVVLTMTNMDPVDTATYYCARRYGYGWYFDFWGQGTLVTVSS VL: DIQMTQSPSSLSASVGDRVTITCKASQNIYNSLAWYQQKPGKAPKVLIFNANSLQTGIPSRFSGSGSGTDFTLTISSLQPEDFATYYCQQFYSGYTFGQGTKLEIK | 2 fold | > 5 fold | 8.8 fold | 3.1 fold | 3.5 fold | – | – | – | – | – | –
h2120_VH1 + h2120_VL2 (antibody, human IgG1, V domains shown) VH: QVTLKESGPVLVKPTETLTLTCTVSGFSLTSNGVSWVRQPPGKALEWIAAISSGGTTYYNSAFKSRLTISRDTSKSQVVLTMTNMDPVDTATYYCARRYGYGWYFDFWGQGTLVTVSS VL: DIQMTQSPSSLSASVGDRVTITCKASQNIYNSLAWYQQKPGKAPKVLIFNANSLQTGVPSRFSGSGSGTDFTLTISSLQPEDFATYYCQQFYSGYTFGQGTKLEIK | 4.6 fold | > 5 fold | 10.8 fold | 3.1 fold | 12.6 fold | – | – | – | – | – | –
h2120_VH4 + h2120_VL3 (antibody, human IgG1, V domains shown) VH: QVTLKESGPVLVKPTETLTLTCTVSGFSLTSQGVSWVRQPPGKALEWIAAISSGGTTYYNSAFKSRLTISRDTSKSQVVLTMTNMDPVDTATYYCARRYGYGWYFDFWGQGTLVTVSS VL: DIQMTQSPSSLSASVGDRVTINCKASQNIYNSLAWYQQKPGKAPKVLIFNANSLQTGIPSRFSGSGSGTDFTLTISSLQPEDFATYYCQQFYSGYTFGQGTKLEIK | 3.8 fold | > 5 fold | 17.4 fold | 5 fold | 5.6 fold | – | – | – | – | – | –
h2107_VH5 + h2107_VL2 (antibody, human IgG1, V domains shown) VH: QVTLKESGPVLVKPTETLTLTCTVSGFSLTSQGVSWVRQPPGKALEWIAAISSGGSTYYNSAFKSRLTISPDTSKSQVVLTMTNMDPVDTATYYCARHRPFYFDYWGQGTLVTVSS VL: DIQMTQSPSSLSASVGDRVTITCKGSQNIYKSLAWFQLKPGKVPKLLIYDANSLQTGIPSRFSGSGSGTDFTLTISSLQPEDVATYYCQQYYSGYTFGGGTKVEIK | – | – | – | – | – | 1.3 fold | 5.9 fold | 1.5 fold | 1.6 fold | 6 fold | –
h2107_VH6 + h2107_VL2 (antibody, human IgG1, V domains shown) VH: QVTLKESGPVLVKPTETLTLTCTVSGFSLTSNAVSWVRQPPGKALEWIAAISSGGSTYYNSAFKSRLTISRDTSKSQVVLTMTNMDPVDTATYYCARHRPFYFDYWGQGTLVTVSS VL: DIQMTQSPSSLSASVGDRVTITCKGSQNIYKSLAWFQLKPGKVPKLLIYDANSLQTGIPSRFSGSGSGTDFTLTISSLQPEDVATYYCQQYYSGYTFGGGTKVEIK | – | – | – | – | – | 3.5 fold | 5.2 fold | 2.3 fold | 4.8 fold | 5.5 fold | –
chimeric 1749 TM (antibody, V domains shown) VH: DVKLVESGGDLVKPGGSLKLSCAASGFTFSSYIMSWVRQTPEKRLEWVATISSGGSSTYYPDSVKGRFTISRDNAKNTLYLQMSSLKSEDTAMYYCTRDDDYDVKVFAYWGQGTLVTVSA VL: DIVMSQSPSSLAVSAGEKVTMNCKSSRSLLNSRIRKNYLAWYQQKPGQSPKLLIYWASTRESGVPDRFTGSGSGTDFTLTISSVQAEDLAVYYCKQSYNLLTFGAGTKLELK | – | – | – | – | – | – | – | – | – | – | 1.07 fold

Reference: US20150239980A1 (NEOTOPE BOSCIENCES, published 2015)
